By EC50 is commonly meant the midpoint of the concentration-response curve. As a reminder, the EC50 (read off the curve) is the concentration giving half of the maximal effect. High values mean weaker potency, low ones greater potency. Usually Kd stands for a measure of binding affinity in units of concentration.

The results in this text go back to patent US20130295106A1 (ONCOMED PHARMACEUTICALS, published 2013).

The target in experiment [1] is T1, soluble FZD8-Fc containing the Fri domain (amino acids 1-157 of FZD8 linked in-frame to human IgG1 Fc) (human, UniProt Q9H461 28-157).
T1 construct: also called wild-type FZD8; not shown: human IgG1 Fc
T1 sequence: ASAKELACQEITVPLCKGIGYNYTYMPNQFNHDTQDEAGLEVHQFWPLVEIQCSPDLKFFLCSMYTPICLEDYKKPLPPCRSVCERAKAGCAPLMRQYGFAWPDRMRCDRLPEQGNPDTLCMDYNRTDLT
As to the kind of experiment: phage ELISA on FZD8-Fc. (An ELISA detects its analyte on a solid surface through an enzyme-linked reagent.)

Experiment [2] has as its target T2, FZD8-Fc variant Mut2 (substitution at position 75 in the cleft) (human, UniProt Q9H461 28-157).
T2 construct: also called FZD8-Mut2; not shown: human IgG1 Fc
T2 chain: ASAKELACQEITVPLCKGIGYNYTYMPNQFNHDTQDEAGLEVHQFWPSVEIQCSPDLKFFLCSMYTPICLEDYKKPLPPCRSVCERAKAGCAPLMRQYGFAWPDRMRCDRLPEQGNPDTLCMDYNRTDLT
In words: phage ELISA on FZD8-Fc Mut2.

The target of experiment [3] is T3, human FZD5 expressed on transfected HEK293 cells (human, UniProt Q13467 27-585).
T3 construct: See note of m11
In words: FACS titration (MFI) on HEK293 cells transfected with full-length FZD and GFP. On the procedure:
(§1) HEK293 cells were co-transfected with a plasmid DNA expressing full-length FZD1, 2, 5, 7 or 8 along with another plasmid expressing the reporter gene GFP used as a transfection marker. Fugene 6 (Roche) was used as transfection reagent according to the manufacturer directions. Transfected cells were incubated twenty-four to forty-eight hours at 37° C. and 5% CO₂. The anti-FZD mAbs were then diluted in a final volume of 50 μl starting with a concentration of 20 μg/ml and serially diluted 4-fold for a total of 8 dilutions. […] The cells were washed and bound anti-Fzd antibodies were detected with a secondary anti-human antibody conjugated to a fluorescent chromophore. Labeled cells were then detected and counted by FACS. The FACS data generated were expressed in Mean Fluorescence Intensity (MFI) units. GraphPad Prism software was used to graph and analyze the data. MFIs were plotted as a function of Ab concentration to establish dose-response curves. A non-linear regression was applied to the numbers to fit the curve and calculate EC50s.
(§2) The binding profiles for the mAbs 18R5 and 44R24 were determined and compared. 44R24 bound Fzd5 and Fzd8 with good affinity.

Experiment [4] addresses T4, human FZD2 expressed on transfected HEK293 cells (human, UniProt Q14332 24-565).
T4 construct: See note of m11
In words: flow cytometry (MFI), antibody titration on HEK293 cells overexpressing the FZD. The procedure: (§3) To measure antibody binding to FZD by flow cytometry HEK293 cells were co-transfected with FZD expression vectors and the transfection marker GFP. Twenty-four to forty-eight hours post-transfection, cells were collected in suspension and incubated on ice with anti-FZD antibodies (10 μg/ml unless otherwise indicated) or control IgG to detect background antibody binding. The cells were washed and primary antibodies detected with Fc domain-specific secondary antibodies conjugated to a fluorescent chromophore (e.g. phycoerythrin conjugated anti-human IgG). Labeled cells were then analyzed by flow cytometry to identify anti-FZD antibodies that specifically recognize cell surface expression of FZD protein. Monoclonal antibodies 18R5 and 18R8 recognized FZD on transfected cells. As shown in FIG. 1 and FIG. 2, both 18R8 and 18R5 bind to multiple FZD including FZD1, FZD2, FZD5, FZD7, and FZD8. To examine the relative ability of 18R8 and 18R5 to bind to each FZD protein, titration analysis was conducted wherein the amount of antibody in the binding reaction was varied (FIG. 2).
A general note: In flow cytometry, cells or beads pass a laser one at a time.

Experiment [5] has as its target T5, human FZD1 expressed on transfected HEK293 cells (human, UniProt Q9UP38 70-647). The experiment is described as above. The procedure: as §3
Experiment [6] has as its target T6, recombinant FZD1 Fc protein (Biacore) (Homo sapiens (Human), UniProt Q9UP38 70-321, limits assumed).
T6 construct: also called Fzd Fc; not shown: Fc part, not described
As to the kind of experiment: SPR, Biacore 2000; Fzd Fc immobilized on CM5 chip, IgG 100 to 0.78 nM in solution. The procedure: (§4) The KDs of 18R8 and 18R5 antibodies were determined using the Biacore 2000 system from Biacore Lifescience (GE Healthcare). Specifically, purified anti-Fzd7 antibodies were serially diluted in 2-fold increments from 100 to 0.78 nM in HBS-P (0.01 M HEPES pH 7.4, 0.15 M NaCl, 0.005% v/v Surfactant P20). Each dilution was tested against recombinant Fzd Fc proteins immobilized onto a CM5 Biacore chip. The association and dissociation rates were measured and KD values determined using the Biaevaluation software program (Table 5, below).
A general note: SPR reads the build-up and loss of mass on a sensor chip optically.

In a further experiment the target is T7, FZD5-Fc (Homo sapiens (Human), UniProt Q13467 27-233, limits assumed).
T7 construct: also called recombinant FZD5 Fc protein; not shown: Fc part, not described
T7 sequence: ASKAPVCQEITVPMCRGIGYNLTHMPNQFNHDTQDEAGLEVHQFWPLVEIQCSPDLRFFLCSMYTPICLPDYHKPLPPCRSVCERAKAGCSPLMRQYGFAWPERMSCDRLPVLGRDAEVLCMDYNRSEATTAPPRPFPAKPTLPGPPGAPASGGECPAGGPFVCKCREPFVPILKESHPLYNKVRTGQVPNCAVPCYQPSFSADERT
The description is as above. On the procedure: as §4

Experiment [7] addresses T8, recombinant FZD7 Fc protein (Biacore) (Homo sapiens (Human), UniProt O75084 33-255, limits assumed).
T8 construct: also called Fzd Fc; not shown: Fc part, not described
The description is as above. On the procedure:
as §4

Experiment [8] deals with T9, recombinant FZD2 Fc protein (Biacore) (Homo sapiens (Human), UniProt Q14332 24-250, limits assumed).
T9 construct: also called Fzd Fc; not shown: Fc part, not described
T9 sequence (Q14332 24-250 limits assumed): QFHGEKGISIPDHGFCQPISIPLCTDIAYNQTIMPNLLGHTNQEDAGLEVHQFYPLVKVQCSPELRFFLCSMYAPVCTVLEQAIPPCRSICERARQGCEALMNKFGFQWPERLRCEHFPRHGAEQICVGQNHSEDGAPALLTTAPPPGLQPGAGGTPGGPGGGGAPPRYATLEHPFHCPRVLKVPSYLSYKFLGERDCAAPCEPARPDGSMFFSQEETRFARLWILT
Described as above. The procedure: as §4

For experiment [9], the target named is T4, human FZD2 expressed on transfected …. As to the kind of experiment: FACS titration (MFI) on HEK293 cells transfected with full-length FZD and GFP. On the procedure:
as §1, §2

Experiment [10] deals with T5, human FZD1 expressed on transfected …. The description is as above. The procedure:
as §1, §2

Experiment [11] concerns the target T10, human FZD7 expressed on transfected HEK293 cells (human, UniProt O75084 33-574).
T10 construct: See note of m11
The description is as above. On the procedure: as §1, §2

T5 sequence (Q9UP38 70-647 limits assumed): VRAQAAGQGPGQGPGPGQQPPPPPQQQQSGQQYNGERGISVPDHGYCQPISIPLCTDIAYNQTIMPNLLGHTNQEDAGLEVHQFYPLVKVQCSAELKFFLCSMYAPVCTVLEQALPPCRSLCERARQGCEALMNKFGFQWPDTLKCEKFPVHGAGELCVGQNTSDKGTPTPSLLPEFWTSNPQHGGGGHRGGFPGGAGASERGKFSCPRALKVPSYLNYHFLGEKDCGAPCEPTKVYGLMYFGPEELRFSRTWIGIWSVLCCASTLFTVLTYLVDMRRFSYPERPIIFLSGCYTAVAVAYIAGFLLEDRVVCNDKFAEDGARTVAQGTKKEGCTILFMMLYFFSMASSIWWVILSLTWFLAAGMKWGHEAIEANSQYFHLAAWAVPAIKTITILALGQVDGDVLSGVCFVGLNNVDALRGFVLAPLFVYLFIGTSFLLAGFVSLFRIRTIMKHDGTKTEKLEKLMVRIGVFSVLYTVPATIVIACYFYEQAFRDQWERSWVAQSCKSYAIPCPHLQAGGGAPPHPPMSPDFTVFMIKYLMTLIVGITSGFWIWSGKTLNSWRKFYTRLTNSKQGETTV
T4 sequence (Q14332 24-565 limits assumed): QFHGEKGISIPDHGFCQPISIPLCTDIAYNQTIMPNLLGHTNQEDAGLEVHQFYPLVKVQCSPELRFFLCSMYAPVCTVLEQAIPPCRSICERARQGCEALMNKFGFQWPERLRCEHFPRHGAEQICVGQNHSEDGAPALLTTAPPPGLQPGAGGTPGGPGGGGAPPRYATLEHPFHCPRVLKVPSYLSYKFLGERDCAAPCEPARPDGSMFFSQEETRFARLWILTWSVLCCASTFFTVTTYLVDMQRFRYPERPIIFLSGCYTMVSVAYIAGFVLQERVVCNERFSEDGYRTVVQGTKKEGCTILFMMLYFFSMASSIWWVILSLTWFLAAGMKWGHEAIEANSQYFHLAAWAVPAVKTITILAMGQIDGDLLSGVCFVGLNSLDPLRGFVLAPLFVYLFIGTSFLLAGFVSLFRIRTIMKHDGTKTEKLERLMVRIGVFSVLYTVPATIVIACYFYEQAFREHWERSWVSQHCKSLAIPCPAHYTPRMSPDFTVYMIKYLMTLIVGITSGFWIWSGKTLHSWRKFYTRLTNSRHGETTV
T6 sequence (Q9UP38 70-321 limits assumed): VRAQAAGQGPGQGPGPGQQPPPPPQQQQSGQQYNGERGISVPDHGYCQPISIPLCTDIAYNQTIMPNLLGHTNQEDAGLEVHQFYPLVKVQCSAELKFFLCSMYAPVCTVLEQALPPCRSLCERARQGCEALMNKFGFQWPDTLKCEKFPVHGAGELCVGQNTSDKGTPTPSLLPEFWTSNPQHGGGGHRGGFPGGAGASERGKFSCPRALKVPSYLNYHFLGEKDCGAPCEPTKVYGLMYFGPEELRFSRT

B1: FZD binding peptide clone #2 (DTLSALIERGLM) (peptide)
peptide: DTLSALIERGLM
notes: Linear 12-mer from the Ph.D. phage display peptide library
In the case of B1, the binding result in [1] is reported as “binds”; in experiment [2], “no binding”.

B2: 44R24 anti-FZD IgG antibody (antibody, V domains shown)
VH: EVQLVESGGGLVQPGGSLRLSCAASGFTFSSYYITWVRQAPGKGLEWVSTISYSSSNTYYADSVKGRFTISRDNSKNTLYLQMNSLRAEDTAVYYCARSIVFDYWGQGTLVTVSS
VL: DIELTQPPSVSVAPGQTARISCSGDALGNRYVYWYQQKPGQAPVLVIPSGIPERFSGSNSGNTATLTISGTQAEDEADYYCGSWDTRPYPKYVFGGGTKLTVLG
notes: also called anti-FZD5/8 44R24
In experiment [3], B2 displayed a concentration for a half-maximal effect (EC50) of 1.89 nM.

B3: 18R5 IgG antibody (human IgG2, lambda) (antibody, V domains shown)
VH: EVQLVESGGGLVQPGGSLRLSCAASGFTFSHYTLSWVRQAPGKGLEWVSVISGDGSYTYYADSVKGRFTISSDNSKNTLYLQMNSLRAEDTAVYYCARNFIKYVFANWGQGTLVTVSS
VL: DIELTQPPSVSVAPGQTARISCSGDNIGSFYVHWYQQKPGQAPVLVIYDKSNRPSGIPERFSGSNSGNTATLTISGTQAEDEADYYCQSYANTLSLVFGGGTKLTVLG
notes: also called OMP-18R5; 18R5 IgG2 antibody
For B3, the “EC50 (read off the curve)” value in [4] and in experiment [5] was ~0.2 mg/L throughout. For the same molecule, the Kd in [6] was 4.6 nM; with FZD5-Fc, 1.9 nM; in experiment [7], 1.8 nM; in [8] it was 3.3 nM. In addition, the half-maximal effective concentration (EC50) stood at 0.62 nM in [9], 1.1 nM in [3], 0.41 nM in experiment [10] and 0.58 nM in experiment [11].

B4: clone 28 (peptide)
peptide: DVWWLGSTWLKR
notes: marked with an arrow
For the molecule B4, the binding result in [2] is listed as “no binding”.
